Assay results reported in the supplement of paper PMC9170038.

Test system: MS2 coat protein
Test: apparent KD of MS2 coat protein; designed switch direction (-1 OFF switch, 1 ON switch): -1; higher = weaker reporter binding
Outline: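 On Illumina chips, designed RNA switches with common flanks were made by stalled E. coli RNA polymerase. Titrations with SNAP-549-labelled MS2 coat protein, doubling from 0.7 or 1.5 nM to 3 µM, were done with no input, with 200 uM small-molecule ligand, or with an oligonucleotide input. Apparent KD is the median per design over clusters, from curve fits of normalised cluster fluorescence.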

[1] = input ligand: microRNA oligo, concentration not stated

Sequence	apparent KD of MS2 coat protein (input ligand: FMN 200 uM) [nM]	apparent KD of MS2 coat protein (input ligand: none) [nM]	apparent KD of MS2 coat protein [1] [nM]	apparent KD of MS2 coat protein (Eterna round: R95, input ligand: FMN 200 uM) [nM]	apparent KD of MS2 coat protein (Eterna round: R95, input ligand: microRNA oligo, concentration not stated) [nM]	apparent KD of MS2 coat protein (Eterna round: R95, input ligand: none) [nM]
ACGUGCACUCAGGAUAUGCUACGCCUGCUCUCAGCAGAAGGGAGUACAUGAGGAUCACCCAUGUGACAUCUGAU [Eternabot (Original) Solution 13] (Eterna round: R97, puzzle: Exclusion 6)	44.3	26				
AGUAACUCAAGAGGAUAUCACAUGAGGAUCACCCAUGUAUAGCGCGCUACGCUAGUCCUCGUAUUUGAGAAGGUUUGAUAAAUG [Quve] (Eterna round: R96, puzzle: Exclusion NG 2)	10.4	14.3	11.4			
UAUCAUCAUGUAGGAUAUGCGUGGCGAAGCUAUGCAGAAGGACAUGAGGAUCACCCAUGUUCUUGCGUCUGCGUACAGAUGCAA [Mat - Exclusion NG 1 - Mod of JL - D71] (Eterna round: R96, puzzle: Exclusion NG 1)	218	66.7	38			
CUGCUGGAGCGGCGCUUUGGUCGUACAUGAGGAUCACCCAUGUAGGAUAUGGUAAAAUUUGCCUGCUAGAAGGAUAGAGUGGUC [salish99_ExNG3_r04_616] (Eterna round: R96, puzzle: Exclusion NG 3)	124	91.6	70			
AAACGCCGAGGAUAUACCCAACCAGUCCUCUAAAGAAGAAAACAUGAGGAUCACCCAUGUAGAAGGCGGUGCAA [Anorti] (Eterna round: R97, puzzle: Exclusion 2)	51.8	28.1				
AUUGUUUGAUACCUCUAAUACAUGAGGAUCACCCAUGUUAUCGAGGAUAUGCAGAAGAGAGGAGAGCAGAAGGCGAAGUAAGAG [JR_ExcNG3_Sub027] (Eterna round: R96, puzzle: Exclusion NG 3)	21.5	19.6	15.9			
UAGAUACAUGAGGAUCACCCAUGUGAGGAUAUGAGAAUUAUAUUAAAUGAAUUAAUUUUCAGAAGGCACAAAGG [JR_Ex1_Sub052] (Eterna round: R97, puzzle: Exclusion 1)	177	166				
GGUUGUCGAGGAUAUACUAGGGACCGAUCGAUCGGAACUUCACAUGAGGAUCACCCAUGUAGAAGGCGACAAUC [Eternabot (L1) Solution 57] (Eterna round: R97, puzzle: Exclusion 2)	116	174				
CCGUGUUUAGGAUAUGCUAUGGAAGUGUUAAUAUUCAUUAGACAUGAGGAUCACCCAUGUAGAAGGAGGCCGCG [Eternabot (L1) Solution 96] (Eterna round: R97, puzzle: Exclusion 2)	340	142				
UUUAAUCGUGACAUGGGUGACAUGAGGAUCACCCAUGUCACAAGCUUCUCGCUCGUCUUAUAAUUAACCCAUGUCAC [LRO Sensor-off var1-13 mod of Stov1-13-A1 by Brourd] (Eterna round: R97, puzzle: Sensor, turn-off variant 1)	17.3	18.7				
UAUAUAUAGUAAGGAUAUGUAUUAGUUUUAUAAACAGAAGGUACUGACAUGAGGAUCACCCAUGUUUUAGUGUGGGCAUGUAGA [JMF's solution 74] (Eterna round: R96, puzzle: Exclusion NG 1)			76.6			
CUUGUUUAUGUAGGAUAUGCCUGGCGUGCCUUUGCAGAAGGACAUGAGGAUCACCCAUGUAUUGCGGUCUGCGUUCAGAUCGCG [salish99_ExNG1_r4_043] (Eterna round: R96, puzzle: Exclusion NG 1)	39	34.9	25.8			
UGAAAGGUAGGAUAUACGAAGAAAAAGGGUAGAAUAAUAACACAUGAGGAUCACCCAUGUAGAAGGACCAAAGG [Mat - Exclusion 2 - Mod of my Tesla design - D9] (puzzle: Exclusion 2)				70.1	23.2	25.2
